This test concerns the target MYC-LRRK2 (leucine rich repeat kinase 2), wild type (human, UniProt Q5S007 1-2527). The test can be described thus: co-IP.

The source of these data is publication doi:10.1101/2020.05.27.119388 (bioRxiv, 2020).

MYC-LRRK2 (leucine rich repeat kinase 2), wild type, sequence (Q5S007 whole entry): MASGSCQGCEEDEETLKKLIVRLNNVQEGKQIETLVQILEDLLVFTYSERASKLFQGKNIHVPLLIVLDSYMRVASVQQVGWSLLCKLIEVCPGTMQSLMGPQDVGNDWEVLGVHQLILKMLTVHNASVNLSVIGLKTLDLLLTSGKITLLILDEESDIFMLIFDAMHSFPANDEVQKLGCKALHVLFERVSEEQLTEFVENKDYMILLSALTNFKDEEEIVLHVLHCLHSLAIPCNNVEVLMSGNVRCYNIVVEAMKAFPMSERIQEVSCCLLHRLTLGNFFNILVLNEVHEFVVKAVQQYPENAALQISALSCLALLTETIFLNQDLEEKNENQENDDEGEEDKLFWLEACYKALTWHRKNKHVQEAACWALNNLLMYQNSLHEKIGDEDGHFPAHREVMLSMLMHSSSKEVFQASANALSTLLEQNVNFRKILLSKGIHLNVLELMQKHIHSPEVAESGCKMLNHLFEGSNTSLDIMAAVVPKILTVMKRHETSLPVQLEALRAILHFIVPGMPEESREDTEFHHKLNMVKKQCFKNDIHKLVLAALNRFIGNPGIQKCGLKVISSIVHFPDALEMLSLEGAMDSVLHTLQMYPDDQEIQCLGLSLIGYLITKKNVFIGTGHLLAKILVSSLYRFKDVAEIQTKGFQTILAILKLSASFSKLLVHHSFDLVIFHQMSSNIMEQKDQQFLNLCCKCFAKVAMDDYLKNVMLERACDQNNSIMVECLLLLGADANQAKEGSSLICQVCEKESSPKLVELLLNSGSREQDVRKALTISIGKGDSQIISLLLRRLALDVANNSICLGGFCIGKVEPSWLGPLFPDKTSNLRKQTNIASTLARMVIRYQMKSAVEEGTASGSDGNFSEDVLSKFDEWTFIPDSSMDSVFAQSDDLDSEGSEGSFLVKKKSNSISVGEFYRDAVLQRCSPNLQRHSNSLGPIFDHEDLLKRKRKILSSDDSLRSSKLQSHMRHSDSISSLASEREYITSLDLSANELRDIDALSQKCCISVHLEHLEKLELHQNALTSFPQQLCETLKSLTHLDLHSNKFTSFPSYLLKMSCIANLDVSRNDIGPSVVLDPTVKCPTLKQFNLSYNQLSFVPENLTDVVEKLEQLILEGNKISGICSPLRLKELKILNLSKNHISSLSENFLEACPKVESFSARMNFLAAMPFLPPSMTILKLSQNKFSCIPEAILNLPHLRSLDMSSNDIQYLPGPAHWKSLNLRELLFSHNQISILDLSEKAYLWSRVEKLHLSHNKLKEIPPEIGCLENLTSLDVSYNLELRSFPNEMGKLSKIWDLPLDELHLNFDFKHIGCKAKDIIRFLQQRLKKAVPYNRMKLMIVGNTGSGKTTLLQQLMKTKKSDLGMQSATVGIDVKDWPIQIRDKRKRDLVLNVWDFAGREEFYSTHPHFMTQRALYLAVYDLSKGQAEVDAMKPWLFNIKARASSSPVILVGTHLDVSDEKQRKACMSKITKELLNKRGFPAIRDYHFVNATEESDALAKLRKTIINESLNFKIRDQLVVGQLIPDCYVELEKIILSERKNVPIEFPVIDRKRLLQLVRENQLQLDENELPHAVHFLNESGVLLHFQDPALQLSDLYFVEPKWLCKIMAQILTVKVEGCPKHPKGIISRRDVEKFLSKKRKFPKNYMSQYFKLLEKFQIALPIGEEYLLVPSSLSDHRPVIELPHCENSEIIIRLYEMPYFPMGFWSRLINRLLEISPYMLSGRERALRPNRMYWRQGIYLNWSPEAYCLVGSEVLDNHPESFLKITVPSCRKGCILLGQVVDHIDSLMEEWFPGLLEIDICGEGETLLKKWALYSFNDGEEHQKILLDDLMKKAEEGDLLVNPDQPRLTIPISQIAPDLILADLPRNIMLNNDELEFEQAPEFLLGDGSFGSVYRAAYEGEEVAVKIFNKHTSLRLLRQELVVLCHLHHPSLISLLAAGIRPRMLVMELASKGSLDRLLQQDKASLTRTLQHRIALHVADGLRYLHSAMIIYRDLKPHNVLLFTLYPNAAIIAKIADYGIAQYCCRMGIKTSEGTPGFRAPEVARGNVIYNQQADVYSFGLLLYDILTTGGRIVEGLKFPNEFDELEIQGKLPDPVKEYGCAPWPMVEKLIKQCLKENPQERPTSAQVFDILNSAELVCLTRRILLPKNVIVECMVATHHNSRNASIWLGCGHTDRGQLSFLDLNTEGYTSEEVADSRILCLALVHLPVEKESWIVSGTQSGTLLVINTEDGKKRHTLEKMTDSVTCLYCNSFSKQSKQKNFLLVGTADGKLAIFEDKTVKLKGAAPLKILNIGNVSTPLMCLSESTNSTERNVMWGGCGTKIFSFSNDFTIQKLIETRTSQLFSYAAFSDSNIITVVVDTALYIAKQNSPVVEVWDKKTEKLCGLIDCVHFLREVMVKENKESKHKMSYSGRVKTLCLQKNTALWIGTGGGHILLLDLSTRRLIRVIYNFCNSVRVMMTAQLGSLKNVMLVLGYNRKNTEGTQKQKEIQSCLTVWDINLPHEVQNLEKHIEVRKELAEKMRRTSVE

B1: GST-AP2M1, recombinant (natural protein)
chain: MIGGLFIYNHKGEVLISRVYRDDIGRNAVDAFRVNVIHARQQVRSPVTNIARTSFFHVKRSNIWLAAVTKQNVNAAMVFEFLYKMCDVMAAYFGKISEENIKNNFVLIYELLDEILDFGYPQNSETGALKTFITQQGIKSQHQTKEEQSQITSQVTGQIGWRREGIKYRRNELFLDVLESVNLLMSPQGQVLSAHVSGRVVMKSYLSGMPECKFGMNDKIVIEKQGKGTADETSKSGKQSIAIDDCTFHQCVRLSKFDSERSISFIPPDGEFELMRYRTTKDIILPFRVIPLVREVGRTKLEVKVVIKSNFKPSLLAQKIEVRIPTPLNTSGVQVICMKGKAKYKASENAIVWKIKRMAGMKESQISAEIELLPTNDKKKWARPPISMNFEVPFAPSGLKVRYLKVFEPKLNYSDHDVIKWVRYIGRSGIYETRC
As to B1, the binding result is “binds”.
